Measured values: patent US11390894B2, “Biological processes for the production of aryl sulfates” (CysBio ApS, priority 2014, dated 2022)

Columns and labels:
pHCA [1] = experiment: Production of zosteric acid in E. coli from pHCA through heterologous expression of sulfotransferases; type: cell-based, Escherichia coli; details: culture media; M9 glucose, 0.1 mM IPTG, 0.1 mM pHCA, four days of growth
Text: A range of aryl sulfotransferases including SULT1A1 Rattus norvegicus (SEQ ID NO: 1), SULT1A1 Homo sapiens (SEQ ID NO: 2), SULT1A1 Equus caballus (SEQ ID NO: 3), SULT1A1 Sus scrofa domesticus (SEQ ID NO: 4), SULT1A1 Canis lupus familiaris (SEQ ID NO: 5) and SULT1E1 Gallus gallus domesticus (SEQ ID NO: 6) were expressed in Escherichia coli. […]. The nucleotide sequence of the gene encoding SEQ ID NO: 2 was codon optimized for expression in Escherichia coli (GeneArt, Life Technologies) and amplified by PCR using the primers in Table 1. The pETDuet-1 plasmid was digested with restriction endonucleases Ncol and Sal. The PCR products were then individually cloned into the plasmid pETDuet-1 using the Gibson reaction (New England Biolabs). The resulting plasmids were transformed into BL21(DE3)pLysS (Life Technologies).
The strains were grown in M9 minimal media containing glucose as a carbon source, and 0.1 mM IPTG for induction of gene expression as well as 0.1 mM p-coumaric acid (pHCA). After four days of growth, samples were withdrawn by filtration and analyzed by HPLC.
(§1) The concentration of p-courmaric acid (pHCA) and zosteric acid in the supernatant was quantified by high performance (HPLC) and compared to chemical standards. HPLC was done on a Thermo setup using a HS-F5 column and mobile phases: 5 mM ammonium formate pH 4.0 (A) and acetonitrile (B) at 1.5 mL min-1, using a gradient elution starting at 5% B. From 0.5 min after injection to 7 min, the fraction of B increased linearly from 5% to 60%, and between 9.5 min and 9.6 the fraction of B decreased back to 5%, and remaining there until 12 min. pHCA and zosteric acid were quantified by measuring absorbance at 277 nm.
Zosteric acid was formed with an aryl sulfotransferase heterologously expressed in a microorganism exemplified by E. coli supplied with the substrate.

p-coumaric acid = experiment: Production of zosteric acid in Saccharomyces cerevisiae expressing SULT1A1; type: cell-based; details: strain CEN.PK102-5B, modified Delft medium, 10 mM p-coumaric acid, overnight 30° C., supernatant
Protocol: as §1
The gene encoding aryl sulfotransferase SULT1A (Example 1) was cloned after a TEF1 promoter into an episomal plasmid with a 2-micron origin of replication as follows. The gene was amplified by PCR using primers CBJP633 and CBJP634. Alternatively, the gene was codon-optimized for E. coli and synthesized by GeneArt and amplified by primers CBJP635 and CBJP636. The TEF1 promoter (Jensen et al., 2014, FEMS Yeast Res 14: 238-248) was amplified by PCR using the primers PTEF1_fw and PTEF1_rv. Plasmid pCfB132 (Jensen et al., supra) was digested by restriction enzymes AsiSI and Nt.Bsml. […]

kaempferol = experiment: Percent conversion of substrate by E. coli cells expressing sulfotransferases; type: cell-based, Escherichia coli; details: 87 μM kaempferol, M9 medium, overnight 37° C.
pHCA [2] = experiment: as above; type: cell-based, Escherichia coli; details: 100 μM pHCA, M9 medium, overnight 37° C.
resveratrol = experiment: as above; type: cell-based, Escherichia coli; details: 95 μM resveratrol, M9 medium, overnight 37° C.

B1: SULT1A1 Rattus norvegicus: aryl sulfotransferase SULT1A1 from Rattus norvegicus (SEQ ID NO: 1), expressed in host cells (protein, listed as Rattus norvegicus)
chain: MEFSRPPLVHVKGIPLIKYFAETIGPLQNFTAWPDDLLISTYPKSGTTWMSEILDMIYQGGKLEKCGRAPIYARVPFLEFKCPGVPSGLETLEETPAPRLLKTHLPLSLLPQSLLDQKVKVIYIARNAKDVVVSYYNFYNMAKLHPDPGTWDSFLENFMDGEVSYGSWYQHVKEWWELRHTHPVLYLFYEDIKENPKREIKKILEFLGRSLPEETVDSIVHHTSFKKMKENCMTNYTTIPTEIMDHNVSPFMRKGTTGDWKNTFTVAQNERFDAHYAKTMTDCDFKFRCEL
Zosteric acid formed (pHCA [1]): 0.10 mM
pHCA remaining (pHCA [1]): 0.02 mM
μM ZA (averages and standard deviations of replicate experiments) (p-coumaric acid): 37.8 ± 5.7 µM
percent conversion of kaempferol (kaempferol): 95%
percent conversion of pHCA (pHCA [2]): 93%
percent conversion of resveratrol (resveratrol): 93%
